Source: US20060148030A1, “Nuclear receptor err y 3” (FUJISAWA PHARMACEUTICAL CO., LTD, priority 2002, published 2006)

Molecular target: T1, PPARα (Homo sapiens, UniProt Q07869)
T1 construct: expressed in transfected cells; host or cells: CV-1 (African green monkey kidney)
T1 sequence (Q07869 1-468): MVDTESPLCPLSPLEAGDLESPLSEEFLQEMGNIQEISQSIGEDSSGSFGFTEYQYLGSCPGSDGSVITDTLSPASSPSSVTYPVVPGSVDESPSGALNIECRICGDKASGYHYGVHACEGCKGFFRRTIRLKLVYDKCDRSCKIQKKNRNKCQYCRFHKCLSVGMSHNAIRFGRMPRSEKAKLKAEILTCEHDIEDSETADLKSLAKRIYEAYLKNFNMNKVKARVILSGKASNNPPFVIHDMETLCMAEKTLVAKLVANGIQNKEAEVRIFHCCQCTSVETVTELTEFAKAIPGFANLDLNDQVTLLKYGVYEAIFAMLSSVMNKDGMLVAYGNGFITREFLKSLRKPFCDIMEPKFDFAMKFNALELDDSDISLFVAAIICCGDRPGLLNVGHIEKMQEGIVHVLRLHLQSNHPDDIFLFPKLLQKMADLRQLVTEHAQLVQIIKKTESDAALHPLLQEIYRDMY
T1 sequence (P19793 1-462 partner): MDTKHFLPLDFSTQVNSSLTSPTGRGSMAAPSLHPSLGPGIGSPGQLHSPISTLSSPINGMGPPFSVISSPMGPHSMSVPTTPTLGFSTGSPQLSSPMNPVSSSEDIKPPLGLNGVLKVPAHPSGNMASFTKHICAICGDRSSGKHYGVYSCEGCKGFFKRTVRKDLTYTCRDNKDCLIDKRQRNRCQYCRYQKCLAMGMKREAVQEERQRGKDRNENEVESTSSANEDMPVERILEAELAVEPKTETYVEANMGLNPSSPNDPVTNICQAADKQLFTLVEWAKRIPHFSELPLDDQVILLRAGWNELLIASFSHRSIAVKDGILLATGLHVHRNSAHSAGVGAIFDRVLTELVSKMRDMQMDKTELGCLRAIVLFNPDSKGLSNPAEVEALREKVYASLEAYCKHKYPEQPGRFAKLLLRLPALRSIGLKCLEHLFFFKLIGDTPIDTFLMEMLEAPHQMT
Assay: Reporter gene assay, ERRγ3 coexisted with PPARα, pGVP2-PPRE1 in CV-1 cells
Type: cell-based
Conditions: 10^−5 M bezafibrate, FIG. 24
Method: Transfection was performed as follows: CV-1 cells were resuspended in DMEM supplemented with 10% fetal bovine serum, 2000 U/l of penicillin G, and 100 mg/l of streptomycin to a concentration of 2×10^5 cells/2.5 ml. This was then seeded to a 6-well plate at 2.5 ml per well, and incubated for 18-24 hours in a CO2 incubator at 37° C. and 5% CO2. 1 μg of each of the expression plasmids for the transcription factors, the luciferase reporter plasmid, and another luciferase reporter plasmid used for normalization of the measured values (pRL-TK), were dissolved in Opti-MEM (Gibco BRL), to a total of 150 μl. […] Luciferase activity was measured using the Dual-Luciferase™ Reporter Assay System (Promega). […] The protocol for measurement was as follows: 50 μl of Luciferase Assay Reagent II was added to each well, stirred for 0.3 seconds, and measured for one second. 50 μl of Stop&Glo™ Reagent was then added, stirred for 0.3 seconds, and measured for one second. The measured values for firefly luciferase activity were corrected by dividing by the value for the Renilla luciferase activity, the internal control. Average values and standard errors were calculated from triplicate samples.
The effect of ligands on the function of ERRγ3 in enhancing the transcriptional activation function of peroxisome proliferator activated receptor (PPAR) α, β, or γ was evaluated using the reporter gene assay (FIG. 24). […]

B1: ERRγ3: novel ERRγ isoform, nuclear receptor protein of 396 amino acids (SEQ ID NO: 2) lacking part of the DNA binding domain (protein, listed as Homo sapiens)
chain: MSNKDRHIDSSCSSFIKTEPSSPASLTDSVNHHSPGGSSDASGSYSSTMNGHQNGLDSPPLYPSAPILGGSGPVRKLYDDCSSTIVEDPQTKCEYMLNSMPKRLCLVCGDIASGYHYGVASCEACKAFFKRTIQGVRLDRVRGGRQKYKRRIDAENSPYLNPQLAQPAKKPYNKIVSHLLVAEPEKIYAMPDPTVPDSDIKALTTLCDLADRELVVIIGWAKHIPGFSTLSLADQMSLLQSAWMEILILGVVYRSLSFEDELVYADDYIMDEDQSKLAGLLDLNNAILQLVKKYKSMKLEKEEFVTLKAIALANSDSMHIEDVEAVQKLQDVLHEALQDYEAGQHMEDPRRAGKMLMTLPLLRQTSTKAVQHFYNIKLEGKVPMHKLFLEMLEAKV
modifying effect on the transcriptional stimulation activity of PPARα: did not show any significant modifying effect
